Biological target: the molecule itself
Test: SEC; Superdex 75 10/300 GL; 20 mM NaCl, 25 mM HEPES, 0.2 mM 2-mercaptoethanol; size from a calibration curve of marker proteins

B1: His-CIP4-HR1 (domain or fragment, Mus musculus, UniProt Q8CJ53-3 339-425, looked up)
chain: PPEQQRKRLQQQLEERNRELQKEEDQREALKKMKDVYEKTPQMGDPASLEPRIAETLGNIERLKLEVQKYEAWLAEAESRVLSNRGD
notes: CIP4, Mus musculus, HR1, a.a; 339-425; numbers count on: UniProt Q8CJ53-3; also called homology region 1 of CIP4; source: E. coli BL21-CodonPlus (DE3)-RIL, purified (Ni-NTA agarose, dialysis)
stoichiometry N: 2

From publication PMC10393992 (Nature Communications, 2023)
